According to PMC5695660 (Nature chemical biology, 2013):
Read-outs that look alike come from different tables or passages of the source.

T1: Cak1p (Saccharomyces cerevisiae, UniProt P43568)
T1 sequence (P43568 1-368): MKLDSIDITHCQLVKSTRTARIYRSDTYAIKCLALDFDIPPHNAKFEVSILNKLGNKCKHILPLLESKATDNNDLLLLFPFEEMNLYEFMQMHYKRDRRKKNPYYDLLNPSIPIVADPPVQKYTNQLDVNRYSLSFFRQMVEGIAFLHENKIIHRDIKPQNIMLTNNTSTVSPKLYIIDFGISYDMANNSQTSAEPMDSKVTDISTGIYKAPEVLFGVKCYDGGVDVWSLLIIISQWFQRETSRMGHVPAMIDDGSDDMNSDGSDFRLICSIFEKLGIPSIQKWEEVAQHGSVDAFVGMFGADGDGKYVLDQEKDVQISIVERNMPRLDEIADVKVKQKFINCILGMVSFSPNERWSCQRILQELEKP

T2: budding yeast Cdc37p (budding yeast, UniProt P06101 1-506)
T2 sequence (looked up): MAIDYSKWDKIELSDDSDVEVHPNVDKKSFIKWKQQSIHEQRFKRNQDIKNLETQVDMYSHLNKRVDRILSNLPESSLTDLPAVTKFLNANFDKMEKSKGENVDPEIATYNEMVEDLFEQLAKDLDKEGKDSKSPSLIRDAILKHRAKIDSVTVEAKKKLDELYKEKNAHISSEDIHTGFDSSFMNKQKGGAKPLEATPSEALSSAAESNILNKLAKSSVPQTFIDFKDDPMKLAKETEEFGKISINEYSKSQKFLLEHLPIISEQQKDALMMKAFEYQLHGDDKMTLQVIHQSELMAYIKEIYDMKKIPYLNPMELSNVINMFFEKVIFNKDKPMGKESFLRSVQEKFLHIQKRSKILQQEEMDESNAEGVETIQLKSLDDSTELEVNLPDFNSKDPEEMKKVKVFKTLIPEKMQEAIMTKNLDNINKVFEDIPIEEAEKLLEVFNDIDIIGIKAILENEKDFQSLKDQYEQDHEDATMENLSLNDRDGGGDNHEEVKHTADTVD

B1: Cak1p, cyclin-dependent kinase activating kinase from budding yeast (enzyme, UniProt P43568 1-368, looked up)
chain: T1 sequence (P43568 1-368)
B2: Cdc37 phosphorylated on Ser13 (natural protein, human, UniProt Q16543 1-378, looked up)
chain: MVDYSVWDHIEVSDDEDETHPNIDTASLFRWRHQARVERMEQFQKEKEELDRGCRECKRKVAECQRKLKELEVAEGGKAELERLQAEAQQLRKEERSWEQKLEEMRKKEKSMPWNVDTLSKDGFSKSMVNTKPEKTEEDSEEVREQKHKTFVEKYEKQIKHFGMLRRWDDSQKYLSDNVHLVCEETANYLVIWCIDLEVEEKCALMEQVAHQTIVMQFILELAKSLKVDPRACFRQFFTKIKTADRQYMEGFNDELEAFKERVRGRAKLRIEKAMKEYEEEERKKRLGPGGLDPVEVYESLPEELQKCFDVKDVQMLQDAISKMDPTDAKYHMQRCIDSGLWVPNSKASEAKEGEEAGPGDPLLEAVPKTGDEKDVSV
modifications: phosphoserine at 13
B3: Cdc37 (human, full length), bacterially expressed (natural protein, UniProt Q16543 1-378, looked up)
chain: B2 chain
B4: BRaf kinase domain (wild-type, native; amino acids 433-726), Sf9 (domain or fragment, human, UniProt P15056 433-726, looked up)
chain: EDRNRMKTLGRRDSSDDWEIPDGQITVGQRIGSGSFGTVYKGKWHGDVAVKMLNVTAPTPQQLQAFKNEVGVLRKTRHVNILLFMGYSTKPQLAIVTQWCEGSSLYHHLHIIETKFEMIKLIDIARQTAQGMDYLHAKSIIHRDLKSNNIFLHEDLTVKIGDFGLATVKSRWSGSHQFEQLSGSILWMAPEVIRMQDKNPYSFQSDVYAFGIVLYELMTGQLPYSNINNRDQIIFMVGRGYLSPDLSKVRSNCPKAMKRLMAECLKKKRDERPLFPQILASIELLARSLPKIHR

What was measured:
[1] = target: Cdc37 (human, full length), bacterially expressed (human) (UniProt Q16543); test: ITC
Cak1p = target: T1, Cak1p; test: isothermal titration calorimetry; assay type: binding
budding yeast Cdc37p = target: T2, budding yeast Cdc37p; test: SEC
[2] = target: T3, Hsp90β, bacterially expressed (human, UniProt P08238 1-724); test: SEC
T3 sequence (P08238 whole entry): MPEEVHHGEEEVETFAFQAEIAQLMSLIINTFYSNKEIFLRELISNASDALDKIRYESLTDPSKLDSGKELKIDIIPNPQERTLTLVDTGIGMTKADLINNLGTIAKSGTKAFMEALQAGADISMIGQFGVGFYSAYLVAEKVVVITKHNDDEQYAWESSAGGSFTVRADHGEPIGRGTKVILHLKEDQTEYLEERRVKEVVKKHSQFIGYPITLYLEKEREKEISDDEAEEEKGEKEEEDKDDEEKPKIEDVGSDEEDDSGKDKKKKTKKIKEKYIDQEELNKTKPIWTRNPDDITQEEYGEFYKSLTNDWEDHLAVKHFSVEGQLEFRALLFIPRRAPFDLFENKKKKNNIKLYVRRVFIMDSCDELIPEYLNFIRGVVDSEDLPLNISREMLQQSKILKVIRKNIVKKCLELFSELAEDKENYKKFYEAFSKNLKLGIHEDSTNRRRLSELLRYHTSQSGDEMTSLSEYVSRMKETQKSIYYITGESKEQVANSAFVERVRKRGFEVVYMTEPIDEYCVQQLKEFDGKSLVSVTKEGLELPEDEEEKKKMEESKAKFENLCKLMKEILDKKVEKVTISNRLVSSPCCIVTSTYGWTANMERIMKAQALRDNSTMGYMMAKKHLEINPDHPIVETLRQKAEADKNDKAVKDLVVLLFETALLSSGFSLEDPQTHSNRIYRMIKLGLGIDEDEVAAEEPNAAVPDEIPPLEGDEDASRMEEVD

[3] = target: T3, Hsp90β, bacterially expressed; test: SEC; remark: listed apart in the source
[4] = target: B3; test: SEC

In the case of “solubilised BRaf V600E kinase domain (sBRafV600E), bacterially expressed (from UniProt P15056 457-717) (domain or fragment)”, the Kd [1] is reported as 200 nM.

`NC1=N/C(=C2/CCNC(=O)c3[nH]ccc32)C(=O)N1` [debromohymenialdisine] was tested, and the Kd (Cak1p) was ~1700 nM.

B1: binds (budding yeast Cdc37p).

B2: binds [2].

B3: binds [3].

B4: binds [4].
